Measured values as given in article PMC4755848 (Proteins, 2016).
Where a chain is given by its changes, count along the chain named.

Tests used:
[1] = target: BaiE (bile acid 7α-dehydratase) from Clostridium scindens ATCC35704 (Clostridium scindens ATCC35704) (UniProt P19412); test: SEC
[2] = target: BaiE (bile acid 7α-dehydratase) from Clostridium hylemonae DSM15053 (Clostridium hylemonae DSM15053); test: SEC
[3] = target: BaiE (bile acid 7α-dehydratase) from Clostridium hiranonis DSM13275 (Clostridium hiranonis DSM13275); test: SEC
purified protein [4] = substrate: C[C@H](CCC(=O)O)[C@H]1CC[C@H]2[C@@H]3[C@H](O)CC4=CC(=O)CC[C@]4(C)[C@H]3CC[C@]12C; test: purified protein; type: biochemical, [Clostridium] scindens; details: 20 mM Tris-HCl pH 7.3, 25 °C
purified protein [5] = substrate: C[C@H](CCC(=O)SCCNC(=O)CCNC(=O)[C@H](O)C(C)(C)COP(=O)(O)OP(=O)(O)OC[C@H]1O[C@@H](n2cnc3c(N)ncnc32)[C@H](O)[C@@H]1OP(=O)(O)O)[C@H]1CC[C@H]2[C@@H]3[C@H](O)CC4=CC(=O)CC[C@]4(C)[C@H]3CC[C@]12C; test: purified protein; type: biochemical, [Clostridium] scindens; details: 20 mM Tris-HCl pH 7.3, 25 °C
SEC = target: the molecule itself; test: SEC
purified protein [6] = substrate: C[C@H](CCC(=O)O)[C@H]1CC[C@H]2[C@@H]3[C@H](O)CC4=CC(=O)CC[C@]4(C)[C@H]3CC[C@]12C; test: purified protein; type: biochemical, [Clostridium] hylemonae; details: 20 mM Tris-HCl pH 7.3, 25 °C
purified protein [7] = substrate: C[C@H](CCC(=O)SCCNC(=O)CCNC(=O)[C@H](O)C(C)(C)COP(=O)(O)OP(=O)(O)OC[C@H]1O[C@@H](n2cnc3c(N)ncnc32)[C@H](O)[C@@H]1OP(=O)(O)O)[C@H]1CC[C@H]2[C@@H]3[C@H](O)CC4=CC(=O)CC[C@]4(C)[C@H]3CC[C@]12C; test: purified protein; type: biochemical, [Clostridium] hylemonae; details: 20 mM Tris-HCl pH 7.3, 25 °C
purified protein [8] = substrate: C[C@H](CCC(=O)O)[C@H]1CC[C@H]2[C@@H]3[C@H](O)CC4=CC(=O)CC[C@]4(C)[C@H]3CC[C@]12C; test: purified protein; type: biochemical, Peptacetobacter hiranonis; details: 20 mM Tris-HCl pH 7.3, 25 °C
purified protein [9] = substrate: C[C@H](CCC(=O)SCCNC(=O)CCNC(=O)[C@H](O)C(C)(C)COP(=O)(O)OP(=O)(O)OC[C@H]1O[C@@H](n2cnc3c(N)ncnc32)[C@H](O)[C@@H]1OP(=O)(O)O)[C@H]1CC[C@H]2[C@@H]3[C@H](O)CC4=CC(=O)CC[C@]4(C)[C@H]3CC[C@]12C; test: purified protein; type: biochemical, Peptacetobacter hiranonis; details: 20 mM Tris-HCl pH 7.3, 25 °C

BaiE (bile acid 7α-dehydratase) from Clostridium scindens ATCC35704 (from UniProt P19412 1-166) (enzyme)
stoichiometry N [1]: 3

BaiE (bile acid 7α-dehydratase) from Clostridium hylemonae DSM15053 (enzyme)
stoichiometry N [2]: 3

BaiE (bile acid 7α-dehydratase) from Clostridium hiranonis DSM13275 (enzyme)
stoichiometry N [3]: 3

B1: BaiE_35704 ([Clostridium] scindens ATCC 35704) (protein)
chain: MTLEERVEALEKELQKMKDIEAIKELKGKYFRCLDGKMWDELETTLSPNIVTSYSNGKLVFHSPKEVTDYLKSTMPKEEISMHMGHTPEITIDSETTATGRWYLEDKLIFTDGKYKDVGINGGAFYTDKYEKIEGQWYILETGYVRIYEEHFMRDPKIHITMNMHK
Km (purified protein [4]): 11.0 (1.9) μM | kcat (purified protein [4]): 18 s⁻¹ | kcat/Km (purified protein [4]): 1.6e+06 M⁻¹ s⁻¹ | Km (purified protein [5]): 1.2 (0.2) μM | kcat (purified protein [5]): 15 s⁻¹ | kcat/Km (purified protein [5]): 1.25e+07 M⁻¹ s⁻¹

B2: BaiE (bile acid 7α-dehydratase) from Clostridium scindens VPI12708 (enzyme, UniProt P19412 1-166, looked up)
chain: B1 chain with K16E, T74S, K107R, E134D
Km (purified protein [4]): 9.9 (2.1) μM | kcat (purified protein [4]): 24 s⁻¹ | kcat/Km (purified protein [4]): 2.4e+06 M⁻¹ s⁻¹ | Km (purified protein [5]): 4.0 (0.56) μM | kcat (purified protein [5]): 98 s⁻¹ | kcat/Km (purified protein [5]): 2.45e+07 M⁻¹ s⁻¹ | stoichiometry N (SEC): 3

B3: BaiE_15053 ([Clostridium] hylemonae DSM 15053) (protein)
chain: MSIEERLEALEKEIQKMKDIEEIKKLKGQYFRCLDGKFWDELETTLSPNIVTSYSNGKLVFHGPKEVTDYFKKAMPREEISMHMGHTPEITIDSETTATGRWYLEDKLIFTEESKYAGSGVNGGAFYTDKYEKVDGKWYILETGYLRVYEEHFMRDPKIKITMNMHKTK
Km (purified protein [6]): 21.0 (2.0) μM | kcat (purified protein [6]): 18.6 s⁻¹ | kcat/Km (purified protein [6]): 900000 M⁻¹ s⁻¹ | Km (purified protein [7]): 11.4 (1.9) μM | kcat (purified protein [7]): 12.6 s⁻¹ | kcat/Km (purified protein [7]): 1.1e+06 M⁻¹ s⁻¹

B4: BaiE_13275 (Peptacetobacter hiranonis DSM 13275) (protein)
chain: MTLEARIEALEKEIQRLNDIEAIKQLKAKYFRCLDGKLWDELETTLSPNIETSYSDGKLVFHSPKEVTEYLAAAMPKEEISMHMGHTPEITIDSENTATGRWYLEDNLIFTDGKYKNVGINGGAFYTDKYEKIDGQWYIKETGYVRIFEEHFMRDPKIHITSNMHKEK
Km (purified protein [8]): 25.0 (1.8) μM | kcat (purified protein [8]): 4.4 s⁻¹ | kcat/Km (purified protein [8]): 200000 M⁻¹ s⁻¹ | Km (purified protein [9]): 208.0 (40.0) μM | kcat (purified protein [9]): 22.2 s⁻¹ | kcat/Km (purified protein [9]): 100000 M⁻¹ s⁻¹
